{"source": "patent US20190022241A1", "about": "(AbbVie / Abbott, published 2019)", "binders": {"B1": {"name": "SC17.45 (antibody, V domains shown)", "VH": "QVQLQQPGSVLVRPGDSVKLSCKASGYTFTSYWMHWVKQSPGQGLEWIGEIHPHSGSTNYNEKFKGKATLTVDTSSSTAYVDLSSLTSEDSAVYYCVGGHYDYWGQGTTLTVSS", "VL": "ENVLTQSPAIMSASPGEKVTMTCSASSSVNYMYWYQQKSSTSPKLWIYDTSKLTSGVPGRFSGSGSGNSYSLTISNMEAEDVATYYCFQGSGYPLTFGSGTKLEIK", "notes": "murine mAb"}, "B2": {"name": "SC17.4 (antibody, V domains shown)", "VH": "QIQLVQSGPELKKPGETVKISCKASGYTFTDYSMHWVKQAPGKGLKWLGWINTETGEPTYSEDFKGRFAFSLETSASTAYLQINNLKNEDTATYFCVKNKGWFAYWGQGTLVTVSA", "VL": "DIKMTQSPSSMYASLGERVTITCKASQDINSYLTWFQQKPGKSPKTLIYRANRLIDGVPSRFSGSGSGQDYSLTISSLDYEDMGIYYCLQYDDFPWTFGGGTKLEIK", "notes": "murine mAb"}, "B3": {"name": "SC17.49 (antibody, V domains shown)", "VH": "QVQLQQSGAELVRPGASVTLSCKASGYTFTDYEMHWVKQTPVHGLEWIGGIDPETGGTAYNQKFKGKATLTADKSSSTAYMELRSLTSEDSAVYFCTRWFSYWGPGTLVTVSA", "VL": "not shown", "notes": "murine mAb"}, "B4": {"name": "hSC17.17 (antibody, human IgG1, V domains shown)", "VH": "QVQLVQSGAEVKKPGASVKVSCKASGYTFTDYNMHWVRQAPGQGLEWMGEINPNIGGTGYNQKFKGRVTMTRDTSISTAYMELSRLRSDDTAVYYCARTYSYYSYEFAYWGQGTLVTVSS", "VL": "EIVLTQSPATLSLSPGERATLSCSASSSVSYMHWYQQKPGQAPRLLIYDTSKLPSGIPARFSGSGSGTDFTLTISSLEPEDFAVYYCQQWSSTPPTFGQGTKLEIK", "notes": "humanized, human IgG1/kappa"}, "B5": {"name": "hSC17.28 (antibody, human IgG1, V domains shown)", "VH": "QVQLVQSGAEVKKPGASVKVSCKASGYTFTRSYIHWVRQAPGQGLEWMGYISSGSGGTTYNQKFKGRVTSTRDTSISTAYMELSRLRSDDTAVYYCARGGVRYFDVWGQGTTVTVSS", "VL": "EIVLTQSPDFQSVTPKEKVTITCRASQSIGTSIHWYQQKPDQSPKLLIKYASESISGVPSRFSGSGSGTDFTLTINSLEAEDAATYYCQQSNSWPLTFGQGTKLEIK", "notes": "humanized, human IgG1/kappa"}, "B6": {"name": "hSC17.34 (antibody, human IgG1, V domains shown)", "VH": "QVQLVQSGAEVKKPGASVKVSCKASGYTFTDYNMDWVRQAPGQRLEWIGYIYPDNGGAGYNQKFKGRVTITVDTSASTAYMELSSLRSEDTAVYYCSRSITTAWFAYWGQGTLVTVSS", "VL": "DIQMTQSPSSLSASVGDRVTITCKASQDINSYLSWFQQKPGKAPKSLIYRANRLVDGVPSRFSGSGSGTDYTLTISSLQPEDFATYYCLQYDEFPPTFGQGTKLEIK", "notes": "humanized, human IgG1/kappa"}, "B7": {"name": "hSC17.46 (antibody, human IgG1, V domains shown)", "VH": "QVQLVQSGAEVKKPGASVKVSCKASGYTFTSYWINWVRQAPGQGLEWIGNIFPDTTTTNYNEKFKGRVTLTRDTSISTAYMELSRLRSDDTAVYYCAREYYDGTYDAMDYWGQGTLVTVSS", "VL": "AIQMTQSPSSLSASVGDRVTITCKASQSVNNDVAWYQQKPGKAPKLLIYYASNRYTGVPSRFSGSGSGTDFTLTISSLQPEDFATYFCQQDYSSPRTFGQGTKLEIK", "notes": "humanized, human IgG1/kappa"}, "B8": {"name": "hSC17.16 (antibody, human IgG1, V domains shown)", "VH": "QVQLVQSGAEVKKPGASVKVSCKASGYTFTDYNMYWVRQAPGQGLEWMGEINPNNGGTAYNQKFRGKVTMTRDTSISTAYMELSRLRSDDTAVYYCARYDKGFDYWGQGTTVTVSS", "VL": "DIQMTQSPSSLSASVGDRVTITCRASANINSNLVWYQQKPGKAPKLLIYAATNLADGVPSRFSGSGSGTDFTLTISSLQPEDFATYYCQHFWGTPRTFGGGTKLEIK", "notes": "humanized; human IgG1 heavy and human kappa light constant regions"}, "B9": {"name": "SC17.87 (antibody, V domains shown)", "VH": "EVQLQQSGAELLKPGASVKLSCTASGLNIKDYYIHWVYQRPEQGLEWIGRIDPESDNTLYDPKFQGKASITADTSSNTAYLQLSSLTSEDTAVYYCTTNTPFAYWGQGTLVTVST", "VL": "DVVMTQTPLSLPVSLGDQASISCRSSQSLVHSNGNTYLHWYLQKPGQSPKLLISKVSNRFSGVPDRFSGSGSGTDFTLKISRVEAEDLGVYFCSQSTHVPPMFGGGTRLEIK", "notes": "murine mAb"}, "B10": {"name": "SC17.97 (antibody, V domains shown)", "VH": "QVQLPQSGAELAKPGASVKISCKASGFTFTSYWMHWVKQRPGQGLEWIGYINPSTDYTEYNQKFKDKATLTADKSSSTAYMQLGSLTSEDSAVYYCARSSYGSSPFDYWGQGSTLTVSS", "VL": "B9 VL with S32N, K50N, S54Y, R82I, V90L, P101R, M102T, R108K", "notes": "murine mAb"}, "B11": {"name": "SC17.82 (antibody, V domains shown)", "VH": "EVQLQQSGPELVKPGASVKMSCKASGYTFTDSYMNWVKQSHGKSLEWIGRVNPNNGGASYNHKFKGKATLTVDKSLSTAYMRLNSLTSEDSAVYYCSRSGDLYYYAMDYWGQGTSVTVSS", "VL": "QIVLTQSPAIMSASLGEEITLTCSASSSVSYMHWYQQKSGTSPKLLIYSTSNLASGVPSRFSGSGSGTFYSLTISSVEAEDAADYYCHQWSSFTFGSGTKLEIK", "notes": "murine mAb"}, "B12": {"name": "SC17.200 (antibody, V domains shown)", "VH": "QVQLQQSGPELVKPGASVKISCKASGYAFSSSWINWVKQRPGQGLEWIGRIYPGEGDTNYSGNFEGKATLTADKSSTTAYMQLSSLTSVDSAVYFCTRGLVMDYWGQGTALTVSS", "VL": "not shown", "notes": "murine mAb"}, "B13": {"name": "SC17.187 (antibody, V domains shown)", "VH": "EVHLQQSGPELVNPGSSVKISCKAAGYTFTDYNMDWVKQSHGKRLEWIGNIYPNNGGAGYNQNFKDKATLTVDKSSSTAYMELRSLTSEDSAVYYCARSITAAWFAYWGQGTLVTVSA", "VL": "B2 VL with I21L, T34S, K45E, D79E, D93E, W96P", "notes": "murine mAb"}}, "note": "Substitutions are numbered along the chain they refer to.", "data": [{"target": "T1, human SEZ6L ECD-His (human, UniProt Q9BYH1 29-955)", "T1 construct": "whole entry named", "T1 sequence": "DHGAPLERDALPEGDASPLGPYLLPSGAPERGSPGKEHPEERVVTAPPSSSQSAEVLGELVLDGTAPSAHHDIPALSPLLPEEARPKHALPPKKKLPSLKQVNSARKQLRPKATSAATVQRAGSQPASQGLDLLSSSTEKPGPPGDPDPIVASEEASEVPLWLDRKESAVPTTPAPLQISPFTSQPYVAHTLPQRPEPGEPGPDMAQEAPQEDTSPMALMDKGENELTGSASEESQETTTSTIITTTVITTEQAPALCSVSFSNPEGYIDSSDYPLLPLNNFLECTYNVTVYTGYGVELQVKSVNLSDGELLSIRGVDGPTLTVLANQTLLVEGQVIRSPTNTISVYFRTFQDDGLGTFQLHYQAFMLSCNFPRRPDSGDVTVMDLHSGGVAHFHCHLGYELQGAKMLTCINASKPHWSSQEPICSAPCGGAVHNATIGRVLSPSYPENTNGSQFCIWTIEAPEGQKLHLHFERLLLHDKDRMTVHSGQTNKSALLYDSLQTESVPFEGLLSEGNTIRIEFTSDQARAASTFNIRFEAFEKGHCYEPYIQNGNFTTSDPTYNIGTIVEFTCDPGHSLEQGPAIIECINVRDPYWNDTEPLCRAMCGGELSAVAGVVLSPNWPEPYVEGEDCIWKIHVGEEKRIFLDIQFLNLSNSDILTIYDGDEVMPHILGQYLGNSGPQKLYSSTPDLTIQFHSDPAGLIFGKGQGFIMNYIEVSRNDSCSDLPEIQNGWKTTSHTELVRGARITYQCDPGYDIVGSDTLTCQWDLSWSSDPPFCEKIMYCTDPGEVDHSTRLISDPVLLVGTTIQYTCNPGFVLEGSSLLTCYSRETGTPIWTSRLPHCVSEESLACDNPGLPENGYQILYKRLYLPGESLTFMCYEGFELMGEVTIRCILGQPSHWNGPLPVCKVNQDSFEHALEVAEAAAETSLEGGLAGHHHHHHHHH", "assay": "ELISA on plates coated with SEZ6L protein", "values": [{"binder": "B1", "binding result": "no binding (tested: 1 µg/mL)"}, {"binder": "B2", "binding result": "no binding (tested: 1 µg/mL)"}, {"binder": "B3", "binding result": "no binding (tested: 1 µg/mL)"}]}, {"target": "T2, human SEZ6L2 ECD-His (human, UniProt Q6UXD5 28-843)", "T2 construct": "whole entry named", "T2 sequence (Q6UXD5 other isoform, or with tags, fused parts or gaps)": "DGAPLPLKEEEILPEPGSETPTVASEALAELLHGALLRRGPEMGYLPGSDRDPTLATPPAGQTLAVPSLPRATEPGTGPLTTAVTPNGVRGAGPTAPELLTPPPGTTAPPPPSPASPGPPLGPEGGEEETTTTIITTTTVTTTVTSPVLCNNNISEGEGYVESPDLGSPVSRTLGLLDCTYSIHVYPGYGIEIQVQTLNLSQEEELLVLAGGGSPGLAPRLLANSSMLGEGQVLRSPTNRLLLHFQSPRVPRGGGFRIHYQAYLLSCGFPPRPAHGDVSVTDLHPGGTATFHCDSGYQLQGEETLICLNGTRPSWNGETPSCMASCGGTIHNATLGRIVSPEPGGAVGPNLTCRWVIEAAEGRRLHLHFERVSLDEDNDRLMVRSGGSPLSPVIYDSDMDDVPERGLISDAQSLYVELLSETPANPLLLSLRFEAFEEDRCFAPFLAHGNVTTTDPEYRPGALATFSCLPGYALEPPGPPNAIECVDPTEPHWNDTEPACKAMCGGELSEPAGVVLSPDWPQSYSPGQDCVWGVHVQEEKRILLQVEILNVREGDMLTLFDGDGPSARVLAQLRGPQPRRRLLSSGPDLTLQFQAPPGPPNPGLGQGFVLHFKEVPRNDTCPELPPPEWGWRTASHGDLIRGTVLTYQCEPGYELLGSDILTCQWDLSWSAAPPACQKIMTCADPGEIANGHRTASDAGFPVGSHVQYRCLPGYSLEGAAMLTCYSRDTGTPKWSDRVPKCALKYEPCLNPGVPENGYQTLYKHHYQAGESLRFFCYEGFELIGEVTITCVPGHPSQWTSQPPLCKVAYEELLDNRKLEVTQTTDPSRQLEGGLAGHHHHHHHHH", "assay": "ELISA on plates coated with SEZ6L2 protein", "values": [{"binder": "B1", "binding result": "no binding (tested: 1 µg/mL)"}, {"binder": "B2", "binding result": "no binding (tested: 1 µg/mL)"}, {"binder": "B3", "binding result": "no binding (tested: 1 µg/mL)"}]}, {"target": "T3, rat SEZ6 on RIN-m5F cells (rat, UniProt Q7TSK2 20-991 (mouse entry))", "T3 construct": "endogenous on RIN-m5F cells; also called rSEZ6", "T3 chain": "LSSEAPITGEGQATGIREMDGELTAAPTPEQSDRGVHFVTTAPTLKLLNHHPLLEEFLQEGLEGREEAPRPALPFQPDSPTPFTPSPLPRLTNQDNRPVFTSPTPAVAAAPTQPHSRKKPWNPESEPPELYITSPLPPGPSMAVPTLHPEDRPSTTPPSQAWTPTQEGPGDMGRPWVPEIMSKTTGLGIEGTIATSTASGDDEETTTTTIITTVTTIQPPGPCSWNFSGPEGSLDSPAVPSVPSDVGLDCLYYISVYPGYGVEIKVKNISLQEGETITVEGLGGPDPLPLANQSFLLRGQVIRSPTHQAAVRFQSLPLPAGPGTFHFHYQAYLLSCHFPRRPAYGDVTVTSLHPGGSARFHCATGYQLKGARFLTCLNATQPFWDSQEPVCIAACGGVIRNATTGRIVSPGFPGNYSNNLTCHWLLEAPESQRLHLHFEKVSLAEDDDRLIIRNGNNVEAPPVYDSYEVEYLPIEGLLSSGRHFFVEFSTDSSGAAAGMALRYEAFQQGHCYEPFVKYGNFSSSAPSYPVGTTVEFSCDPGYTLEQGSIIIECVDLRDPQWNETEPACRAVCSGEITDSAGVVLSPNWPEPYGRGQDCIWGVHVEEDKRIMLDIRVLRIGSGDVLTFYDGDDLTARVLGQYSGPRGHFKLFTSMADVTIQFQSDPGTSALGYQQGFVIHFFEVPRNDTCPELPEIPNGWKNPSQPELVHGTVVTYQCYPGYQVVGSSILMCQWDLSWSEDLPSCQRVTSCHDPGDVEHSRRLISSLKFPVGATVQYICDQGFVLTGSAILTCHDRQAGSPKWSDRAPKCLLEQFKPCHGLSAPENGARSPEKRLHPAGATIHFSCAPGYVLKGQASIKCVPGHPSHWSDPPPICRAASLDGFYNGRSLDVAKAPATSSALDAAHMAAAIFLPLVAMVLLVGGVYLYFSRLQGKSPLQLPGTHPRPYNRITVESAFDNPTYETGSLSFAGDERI", "assay": "flow cytometry on RIN-m5F cells expressing rat SEZ6, verified by BLI or SPR on rat SEZ6-His", "values": [{"binder": "B1", "binding result": "no binding (tested: 5 µg/mL)"}, {"binder": "B2", "binding result": "no binding (tested: 5 µg/mL)"}, {"binder": "B3", "binding result": "no binding (tested: 5 µg/mL)"}]}, {"target": "T4, mouse SEZ6 on Neuro2a cells (mouse, UniProt Q7TSK2 20-991)", "T4 construct": "endogenous on Neuro2a cells; also called murine SEZ6; mSEZ6", "assay": "flow cytometry on Neuro2a cells expressing mouse SEZ6", "values": [{"binder": "B1", "binding result": "no binding (tested: 5 µg/mL)"}, {"binder": "B2", "binding result": "no binding (tested: 5 µg/mL)"}, {"binder": "B3", "binding result": "no binding (tested: 5 µg/mL)"}]}, {"target": "T5, hSEZ6-ECD-His (human, UniProt Q53EL9 20-925)", "T5 construct": "the whole entry is named; also called recombinant SEZ6-His; human recombinant SEZ6-His", "assay": "SPR, Biacore 2000 (data not shown)", "values": [{"binder": "B4", "binding result": "binds"}, {"binder": "B5", "binding result": "binds"}, {"binder": "B6", "binding result": "binds"}, {"binder": "B7", "binding result": "binds"}, {"binder": "B8", "binding result": "binds"}]}, {"target": "T6, SEZ6 N1 (amino acids 1-70) on yeast (human, UniProt Q53EL9 20-89)", "T6 construct": "yeast display", "T6 sequence": "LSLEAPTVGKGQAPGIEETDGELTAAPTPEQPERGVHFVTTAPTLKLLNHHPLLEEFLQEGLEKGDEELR", "assay": "yeast display, flow cytometry;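 also: antibody binding to individual SEZ6 domains displayed on yeast, measured by flow cytometry, antibody at 50 nM purified or hybridoma supernatant diluted 1:2, 90 min on ice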", "values": [{"binder": "B2", "binding result": "binds"}]}, {"target": "T7, SEZ6 Sushi Domain 1 (amino acids 336-395) on yeast (human, UniProt Q53EL9 355-414)", "T7 construct": "yeast display", "assay": "yeast display, flow cytometry", "values": [{"binder": "B9", "binding result": "binds"}, {"binder": "B10", "binding result": "binds"}, {"binder": "B11", "binding result": "binds"}, {"binder": "B12", "binding result": "binds"}, {"binder": "B13", "binding result": "binds"}]}, {"target": "T5, hSEZ6-ECD-His", "assay": "bio-layer interferometry (ForteBio RED) or surface plasmon resonance (Biacore 2000) on human SEZ6-His; the table does not say which; column Hu Affinity (Kd, nM)", "units": {"Kd": "nM"}, "values": [{"binder": "B1", "Kd": 17.4}, {"binder": "B3", "Kd": 23.1}]}]}
